Assay results as given in PMC10311653 (ACS Central Science, 2023).
Read-outs that look alike come from different tables or passages of the source.

How the values were obtained:
[1] = molecular target: T1, wildtype (WT) human interleukin-1β (Homo sapiens, UniProt P01584)
hIL-1βQ15Kcr = hIL-1βQ15Kcr (Homo sapiens, UniProt P01584, point mutant, Nε-crotonyl-L-lysine (Kcr) at 15)
[2] = molecular target: T1, wildtype (WT) human interleukin-1β; assay: ELISA; phage ELISA; antigen (100 ng) coated on the plate; phages added (pfu titration) in 3% skim milk in DPBST, 2 h at 37 °C; conditions: one partner purified
hIL-1βQ15G = molecular target: T2, hIL-1βQ15G (Homo sapiens, UniProt P01584, point mutant); assay: not stated; binding affinity of Q15Kcr-G8-mFc for hIL-1β, hIL-1βQ15Kcr and hIL-1βQ15G (Figure S13E); conditions: both partners purified
T2 construct: human interleukin-1β (hIL-1β); source: E. coli BL21 (DE3), purified (Ni-NTA, Superdex 75 SEC)

hIL-1β V151A = molecular target: T3, hIL-1β V151A (Homo sapiens, UniProt P01584, point mutant); assay: ELISA; antigen (100 ng) coated on the plate; scFv-mFc added in 3% skim milk in DPBST, 2 h at 37 °C; EC50; conditions: both partners purified
T3 construct: human interleukin-1β (hIL-1β); source: E. coli BL21 (DE3), purified (Ni-NTA, Superdex 75 SEC)

[3] = molecular target: T1, wildtype (WT) human interleukin-1β; assay: as above; conditions: both partners purified

B1: Q15CK-A8 (antibody, V domains shown)
VH: EVKLQESGAELVKPGASVKLSCTASGFNIEDTYIHWVKQRPEQGLEWIGRIDPANGNTKYDPKFQGKATITEDTSSNTAYLQLSSLTSEDTAVYYCAIHYYGSFAYWGQGTLVTVSA
VL: DIQITQSRKFMSTSVGDRVSVTCKASQNVGTNVAWYQQKPGQSPKALIYSASYRYSGVPDRFTGSGSGTDFTLTISNVQSEDLAEYFCQQYNSYPYTFGGGTKLELK
Which results are given for B1?
binding result [1]: binds; binding result (hIL-1βQ15Kcr): binds

B2: Q15Kcr-D1 phage (scFv, V domains shown)
VH: EVQLQESGAELVKPGASVKLSCTASGFNIEDTYIHWVKQRPEQGLEWIGRIDPANDNTKYDPKFQGKATITEDTSSNTAYLQLSSLTSEDTAVYYCAIHYYGSFAYWGQGTLVTVSA
VL: DILMTQSRKFMSTSVGDRVSVTCKASQNVGTNVAWYQQKPGQSPEALIYSASYRYSGVPDRFTGSGSGTDFTLTISNVQSEDLADYFCQQYNTYPYTFGGGTKLEMK
notes: mouse scFv from the Q15Kcr immunization library; source: E. coli XL1-Blue with M13KO7 (ΔpIII) hyperphage, monoclonal phage, PEG 8000/NaCl precipitated
Does B2 bind [2]?
Result: binds

B3: Q15Kcr-C7 phage (scFv, V domains shown)
VH: EVQQQQSGTELMKPGASVKISCKATGYTFSSYWIEWVKQRPGHGLEWIGEILPGSGSTNYNEKFKGKATFTADTTSNTAYMQLSSLTSEDSAVYYCASGGYRPSMDYWGQGISVTVSS
VL: GIELTQSQKFTSTSVGDRVSVTCKASQNVGTNVAWYQQKPGQSPKALIYQASYRYSGVPDRFTGSGSGTDFTLTISNVQSEDLAEYFCQQYNSYPLTFGAGTKLELK
notes: as for B2
Does B3 bind [2]?
Result: binds

B4: Q15Kcr-B6 phage (scFv, V domains shown)
VH: EVQLQESGAELVKPGASVKLSCTASGFNIKDTYIHWVKQRPEQGLEWIGRIDPANVNTKYDPKFQGKATITADTSSNTAYLQLSSLTSEDTAVYYCAIHYYGSFAHWGQGTLVTVPA
VL: DIVMTQSHKFMSTSVGDRVSITCKASQDVGTAVAWYQQKPGQSPKLLIYWASTRHTGVPDRFTGSGSGTDFTLTISNVQSEDLADYFCQQYSSYPLTFGSGTKLEIK
notes: as for B2
Does B4 bind [2]?
Result: binds

B5: Q15Kcr-A3 phage (scFv, V domains shown)
VH: EVQLQQSGAELVKPGASVKLSCTASGFNIKDTYIHWVKQRPEQGLEWIGRIDPANGNTKYDPKFQGKATIRADTSSNTAYLQLSSLTSEDTAVYYCAIHYYGSFAYWGQGTLVTVSA
VL: DILMTQSHKFMSTSVGDRVSITCKASQDVGTAVAWYQQKPGQSPKLLIYWASTRHTGVPDRFTGSGSGTDFTLTISNVQSEDLADYFCQQYSSYPYTFGGGTKLEIK
notes: as for B2
Does B5 bind [2]?
Result: binds

B6: Q15Kcr-G8-mFc (Fc fusion, mouse)
VH: EVQLQQSGAELVKPGASVKLSCTASDFNIKDTYIHWVKQRPEQGLEWIGRIDPADGNTKYDPKFQGKATITADTSSNTAYLQLSSLTSEDTAVYYCAIHYYGSFPYWGQGTLVTVSA
VL: DIVMTQAHKFMSTSVGDRVSITCQASQDVGTAVAWYQQKPGQSPKLLIYWASTRHTGVPDRFTGSGSGTDFTLTISNVQSEDLADYFCQQYSSYPYTFGGGTKLEIK
notes: as the scFv of m42; source: HEK 293F, transfected, purified (Protein A, Superdex 200 SEC)
Which “fold decrease of affinity” value (hIL-1βQ15G) does the source give for B6 here?
Its value is ~10 fold.

B7: Q15CK-H5 (antibody, V domains shown)
VH: EVQLQQSGAELVKPGASVRLSCTASGFNIKDTYMHWVRQRPEQGLEWIGRIDPANGNTKYDPKSQGKATLTADTSSNTAYLHLSSLTSEDTAVYYCAIHYYGSFAYWGQGTLVTVSA
VL: DIVMTQSQKFMSTSVGDRVSVTCKASQNVGTNVAWYQQKPGQSPKALIYSASYRYSGVPDRFTGSGSGTDFTLTISNVQSEDLAEYFCQQYNSYPLTFGAGTKLELK
What does the source list for B7?
binding result [1]: binds; binding result (hIL-1βQ15Kcr): binds

B8: Q15CK-B10 (antibody, V domains shown)
VH: EVQLQQSGTELVKPGASVKLSCTASGFNIKDTYMHWVKQRPEQGLEWIGRIDPANDNTKYDPKFQGKATITTDTSSNTAYLQLSSLTSEDTAVYYCAIHYYGSFPYWGQGTLVTVSA
VL: DIVMTQSQKFMSTSVGDRVSITCKASQNVGTAVAWYQQKPGQSPKLLIYSASNRYTGVPDRFTGSGSGTDFTLTISNMQSEDLADYFCQQYSSYPYTFGGGTKLELK
What does the source list for B8?
binding result [1]: binds; binding result (hIL-1βQ15Kcr): binds

B9: Q15Kcr-C1 phage (scFv, V domains shown)
VH: EVQLQQSGAELVKPGASVKLSCTASGFNIKDTYIHWVKQRPEQGLEWIGRIDPADGNTKYDPKFQGKATITADTSSNTAYLQLSSLTSEDTAVYYCAIHYYGSFPYWGQGTLVTVSA
VL: DIQMTQTTSSLSASLGDRVSISCRTSQDISNYLNWYQQKPDGTLKLLIYFTSRLHSGVPSRFSGSGSGTDYSLTISNLEQEDIATYFCQQGKTLPYTFGGGTKLELK
notes: as for B2
Does B9 bind [2]?
Result: binds

B10: Q15Kcr-H2 phage (scFv, V domains shown)
VH: EVQLQQSGAELVKPGASVKLSCTASGFNIKDTYIHWVKQRPEQGLEWIGRIDPANVNTKYDPKFQGKATITADTSSNTAYLQLSSLTSEDTAVYYCAIHYYGSFAHWGQGTLVTVSA
VL: DILMTQSQKFMSTSVGDRVSVTCKASQNVGTNVAWYQQKPGQSPKALIYQASYRYSGVPDRFTGSGSGTDFTLTISNVQSEDLAEYFCQQYNSYPYTFGGGTKLELK
notes: as for B2
Does B10 bind [2]?
Result: binds

B11: CL-E2 phage (scFv, V domains shown)
VH: EVQLKESGAELMKPGASVKISCKATGYTFSSYWIEWVKQRPGHGLEWIGEILPGSGSTNYNEKFKGKATFTADISSNTAYMQLSSLTSEDSAVYYCASGGYRPSMDFWGQGTSVTVSS
VL: DIVMTQSQKFMSTSVGDRVSITCKASQNVRTAVAWYQQKPGQSPKALIYLASNRHTGVPDRFTGSGSGTDFTLTITNVQSEDLADYFCLQHWNYPLTFGAGTKLELK
notes: mouse scFv from the E64AcrK immunization library; also called phage CL-E2; source: E. coli XL1-Blue with M13KO7 (ΔpIII) hyperphage, monoclonal phage, PEG 8000/NaCl precipitated
Does B11 bind [2]?
Result: binds

B12: Q15CK-B1 (antibody, V domains shown)
VH: EVQLQQSGPQLVRPGASVKISCKASGYSFTSYWMHWVKQRPGQGLEWIGMIDPSDSETRLNQKFKDKATLTVDKSSSTAYMQLSSPTSEDSAVYYCARWDSWGQGTLVTVSA
VL: DIVMTQSPSSLTVTAGEKVTMSCKSSQSLSKSGNQKNYLTWYQQKPGQPPKLLIYWASTRESGVPDRFTGSGSGTDFTLTISSVQAEDLAVYYCQNDYSYPFTFGSGTKLEIK
What does the source list for B12?
binding result [1]: binds; binding result (hIL-1βQ15Kcr): binds

B13: Q15CK-D6 (antibody, V domains shown)
VH: EVQLQQSGPQLVRPGASVKISCKASGYSFTNYWMHWVKQRPGQGLEWIGMIDPSDSETRLDQKFKDKATLTVDKSSSTAYMQLSSPTSEDSAVYYCARWDSWGQGTLVTVSA
VL: DILLTQSPSSLTVTAGEKVTMSCKSSQSLLNSGNQKNYLTWYQQKPGQPPKLLIYWASTRESGVPDRFTGSGSGTDFTLTISSVQAEDLAVYYCQNDYSYPFTFGSGTKLEIK
Does B13 bind [1]?
Result: binds

Does B13 bind (hIL-1βQ15Kcr)?
Result: binds

B14: Q15Kcr-H11 phage (scFv, V domains shown)
VH: EVQLQQSGAELVKTGASVKLSCTASGFSIKDTYIHWVKQRPEQGLEWIGRIDPDPATINTKYDPHFQDKATITADTSSNTTYLQLSSLTSEDTAVYYCAIHYYGSFPYWGQGTLVTVSA
VL: DIQMTQTTSSLSASLGDRVTISCRASQDISNYLNWYQQKPDGTVKLLIYFTSRLHSGVPSRFSGSGSGTDYSLTISNLEQEDIATYFCQQGNTLPYTFGGGTKLELK
notes: as for B2
Does B14 bind [2]?
Result: binds

B15: E64Kcr-A4-mFc (Fc fusion, mouse)
VH: EVKLEESGGGLVQPGGSMKLSCVASGFTFSNYWMNWVRQSPEKGLEWVAEIRLKSNNYATPYAESVKGRFTISRDDSKSSVYLQMNNLRAEDTGIYYCTRGGIFLAYWGQGTLVTVSA
VL: DIQLTQPTSSLSASLGDRVTISCRASQDISNYLNWYQQKPDGTVKLLIYYTSRLHSGVPSRFSGSGSGTDYSLTISNLEQEDIATYFCQQGNTLPYTFGGGTKLELK
notes: as the scFv of m29; source: HEK 293F, transfected, purified (Protein A, Superdex 200 SEC)
What does the source list for B15?
binding result (hIL-1β V151A): binds; EC50 [3]: 0.121 nM

B16: E64Kcr-B9-mFc (Fc fusion, mouse)
VH: EVQLQQSGAELVKPGASVKLSCTASGFNIKDTYMHWVKQRPEQGLEWIGRIDPANGNTKYDPKFQGKATITADTSSNTAYLQLSSLTSEDTAVYYCAIHYYGSLPVWGAGTTVTVSS
VL: GIVMTQSHKFMSTSVGDRVSITCKASQDVGTAVAWYQQKPGQSPKLLIYWASTRHTGVPDRFTGSGSGTDFTLTISNVQSEDLADYFCQQYSSYPLTFGAGTMLELK
notes: as the scFv of m30; source: HEK 293F, transfected, purified (Protein A, Superdex 200 SEC)
What does the source list for B16?
binding result (hIL-1β V151A): binds; EC50 [3]: 0.04 nM

B17: Q15CK-D4 (antibody, V domains shown)
VH: EVQLVESGGGLVQPGGSRKLSCAASGFTFSTFGMHWVRQAPEKGLEWVAYISSGSYTIYYADTVKGRFTISRDNPKNTLFLQMTSLRSEDTAMYYCARDDYDVNYYAMDYWGQGTSVTVSS
VL: DIVLSQSPAIMSASPGEKVTMTCSASSSVSYMHWYQQKSSTSPKLWIYDTSKLASGVPGRFSGSGSGNSYSLTISSMEAEDVATYYCFQGSGYPYTFGGGTKLEIK
Does B17 bind [1]?
Result: binds

Does B17 bind (hIL-1βQ15Kcr)?
Result: binds

B18: E64Kcr-A5-mFc (Fc fusion, mouse)
VH: EVQLVESGGGLVQPGGSRKLSCAASGFTFSSFGMHWVRQAPEKGLEWVAYISSGSYTIYYADTVKGRFTISRDNPKNTLFLQMTSLRSEDTAMYYCTRDDYDVRAYAMDYWGQGTSVTVSS
VL: DIVMTQPSSSFSVSLGDRVTITCKASEDIYNRLAWYQQKPGNAPRLLISGATTLETGVPSRFSGSGSGKDYTLTITSLQTEDVATYYCQQYWSTPLTFGAGTKLELK
notes: as the scFv of m25; source: HEK 293F, transfected, purified (Protein A, Superdex 200 SEC)
Does B18 bind (hIL-1β V151A)?
Result: binds

What about the EC50 [3] of the same binder?
Its EC50 is 0.034 nM.

B19: E64Kcr-G9-mFc (Fc fusion, mouse)
VH: EVQLVESGGGLVQPGGSRKLSCAASGFTFSSFGMHWVRQAPEKGLEWVAYISSGSSTIYYADTVKGRFTISRDNPKNTLFLQMTSLRSEDTAMYYCARDDYDVRAYAMDYWGQGTSVTVSS
VL: DIQMIQSPASLSASVGETVTITCRASQNIYSYLAWYQQKQGKSPQLLVYNAKTLAEGVPSRFSGSGSGTQFSLKINSLQPEDFGSYYCQHHYGTPLTFGAGTKLELK
notes: as the scFv of m27; source: HEK 293F, transfected, purified (Protein A, Superdex 200 SEC)
Does B19 bind (hIL-1β V151A)?
Result: binds

And the EC50 [3]?
Its EC50 is 0.197 nM.
